Results published in paper PMC8599812 (Nucleic Acids Research, 2021).
Read-outs that look alike come from different tables or passages of the source.

Assays:
D2-Zn-WH [1] = target: T1, D2-Zn-WH (human, UniProt P46063 282-616); test: fluorescence anisotropy
D2-Zn-WH helix4A [2] = target: T2, D2-Zn-WH helix4A (human, UniProt P46063 282-616, F420A;F424A;S427A;S428A); test: fluorescence anisotropy
D2-Zn-WH [3] = target: T1, D2-Zn-WH; test: fluorescence anisotropy; remark: listed apart in the source
D2-Zn-WH [4] = target: T1, D2-Zn-WH; test: fluorescence anisotropy; remark: listed apart in the source
D2-Zn-WH helix4A [5] = target: T2, D2-Zn-WH helix4A; test: fluorescence anisotropy; remark: listed apart in the source
SEC = target: the molecule itself; test: SEC
RECQ1T1,helix4A = RECQ1T1,helix4A (human, UniProt P46063 49-616, F420A;F424A;S427A;S428A); test: fluorescence anisotropy
RECQ1T1 = RECQ1T1 (human, UniProt P46063 49-616); test: fluorescence anisotropy

T2 sequence (P46063 282-616 F420A/F424A/S427A/S428A): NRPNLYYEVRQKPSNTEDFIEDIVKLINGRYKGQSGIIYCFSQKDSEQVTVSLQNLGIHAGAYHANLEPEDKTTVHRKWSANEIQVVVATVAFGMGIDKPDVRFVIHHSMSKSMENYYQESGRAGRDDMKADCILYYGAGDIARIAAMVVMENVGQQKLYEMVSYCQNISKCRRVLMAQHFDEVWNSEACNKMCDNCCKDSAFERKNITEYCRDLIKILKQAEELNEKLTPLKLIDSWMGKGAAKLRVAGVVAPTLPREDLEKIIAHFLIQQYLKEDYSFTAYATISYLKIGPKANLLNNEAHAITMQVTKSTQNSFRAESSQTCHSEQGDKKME

Binder: GGATCTCGACGCTCTCCCTT (ssDNA) [Rec20_FL ssDNA 20-mer]
- Kd (D2-Zn-WH [1]): 1.48 ± 0.11 µM

B1: Rec20_FL/Rec20R 20 bp blunt duplex (dsDNA)
DNA 1: GGATCTCGACGCTCTCCCTT
DNA 2: AAGGGAGAGCGTCGAGATCC
- Kd (D2-Zn-WH helix4A [2]): 2.08 ± 0.15 µM
- Kd (D2-Zn-WH [3]): 1.17 ± 0.12 µM

B2: Rec20_FL/Rec20R_3oh 20/10-mer 3' tailed duplex (dsDNA)
DNA 1: GGATCTCGACGCTCTCCCTT
DNA 2: GTCGAGATCC
- Kd (D2-Zn-WH [4]): 1.97 ± 0.3 µM
- Kd (D2-Zn-WH helix4A [5]): 5.7 ± 1.1 µM

B3: RECQ1^T1 (near full-length human RECQ1, amino acid 49–616) (enzyme, UniProt P46063 49-616, looked up)
chain: CLEDSDAGASNEYDSSPAAWNKEDFPWSGKVKDILQNVFKLEKFRPLQLETINVTMAGKEVFLVMPTGGGKSLCYQLPALCSDGFTLVICPLISLMEDQLMVLKQLGISATMLNASSSKEHVKWVHAEMVNKNSELKLIYVTPEKIAKSKMFMSRLEKAYEARRFTRIAVDEVHCCSQWGHDFRPDYKALGILKRQFPNASLIGLTATATNHVLTDAQKILCIEKCFTFTASFNRPNLYYEVRQKPSNTEDFIEDIVKLINGRYKGQSGIIYCFSQKDSEQVTVSLQNLGIHAGAYHANLEPEDKTTVHRKWSANEIQVVVATVAFGMGIDKPDVRFVIHHSMSKSMENYYQESGRAGRDDMKADCILYYGFGDIFRISSMVVMENVGQQKLYEMVSYCQNISKCRRVLMAQHFDEVWNSEACNKMCDNCCKDSAFERKNITEYCRDLIKILKQAEELNEKLTPLKLIDSWMGKGAAKLRVAGVVAPTLPREDLEKIIAHFLIQQYLKEDYSFTAYATISYLKIGPKANLLNNEAHAITMQVTKSTQNSFRAESSQTCHSEQGDKKME
- stoichiometry N (SEC): 2

B4: Fork30T_R_FL/Fork30T_F forked duplex (dsDNA)
DNA 1: TTTTTTTTTTTTTTTTTTTTTTTTTTTTTTCGTACCCGATGTGTTCGTTC
DNA 2: GAACGAACACATCGGGTACGTTTTTTTTTTTTTTTTTTTTTTTTTTTTTT
- Kd (RECQ1T1,helix4A): 0.193 ± 0.027 µM
- Kd (RECQ1T1): 0.087 ± 0.016 µM
